# Test results published in the supplement of paper PMC9112550, “Optimization of the antimicrobial peptide Bac7 by deep mutational scanning” (BMC Biology, 2022).
# Test system: Escherichia coli TOP10
# Assay: shrunken log2 fold change of peptide-encoding DNA abundance (4.5 h post-induction vs induction); higher = less antimicrobial activity (less host growth inhibition)
# Details: time post-induction: 4.5 h; library: site-saturation at positions 5, 18, 19, 20
# 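Note: peptides expressed intracellularly from a pBAD plasmid library in pooled LB shake-flask culture, induced with 0.3% L-arabinose, DNA abundance read by NGS, three biological replicates, DESeq2 with apeglm shrinkage.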
row,Sequence,shrunken log2 fold change
1,RRIRARPPRLPRPRPRPEKYPRP,0.101
2,RRIRVRPPRLPRPRPRPPWWPRP,0.665
3,RRIRDRPPRLPRPRPRPNVRPRP,-0.275
4,RRIRCRPPRLPRPRPRPLCNPRP,-0.244
5,RRIRERPPRLPRPRPRPQRNPRP,-0.214
6,RRIRFRPPRLPRPRPRPIRQPRP,-0.297
7,RRIRMRPPRLPRPRPRPVKPPRP,0.202
8,RRIRWRPPRLPRPRPRPCIIPRP,-0.222
9,RRIRIRPPRLPRPRPRPTGAPRP,-0.0341
10,RRIRYRPPRLPRPRPRPSPYPRP,-0.709
11,RRIRTRPPRLPRPRPRPTCLPRP,-0.216
12,RRIRDRPPRLPRPRPRPCYCPRP,-0.148
13,RRIRWRPPRLPRPRPRPQVQPRP,0.115
14,RRIRERPPRLPRPRPRPDMCPRP,0.00902
15,RRIRLRPPRLPRPRPRPLPNPRP,0.11
16,RRIRVRPPRLPRPRPRPIMSPRP,-0.0851
17,RRIRWRPPRLPRPRPRPETWPRP,0.502
18,RRIRQRPPRLPRPRPRPAYGPRP,-0.341
19,RRIRQRPPRLPRPRPRPRNAPRP,0.483
20,RRIRQRPPRLPRPRPRPWNHPRP,-0.0081
21,RRIRNRPPRLPRPRPRPQQHPRP,-0.111
22,RRIRVRPPRLPRPRPRPIHNPRP,-0.554

row,Sequence,shrunken log2 fold change
1,RRIRHRPPRLPRPRPRPPDTPRP,-0.071
2,RRIRWRPPRLPRPRPRPYQYPRP,-0.0756
3,RRIRDRPPRLPRPRPRPCKIPRP,-0.0385
4,RRIRDRPPRLPRPRPRPRLAPRP,0.686
5,RRIRSRPPRLPRPRPRPIKKPRP,0.234
6,RRIRRRPPRLPRPRPRPQEDPRP,0.108
7,RRIRYRPPRLPRPRPRPQWVPRP,-0.0081
8,RRIRRRPPRLPRPRPRPCQVPRP,0.0476
9,RRIRTRPPRLPRPRPRPAGKPRP,0.196
10,RRIRTRPPRLPRPRPRPPHVPRP,0.307
11,RRIRTRPPRLPRPRPRPSPIPRP,-0.733
12,RRIRERPPRLPRPRPRPNWCPRP,-0.0117
13,RRIRTRPPRLPRPRPRPPFVPRP,0.227
14,RRIRKRPPRLPRPRPRPYCEPRP,-0.102
15,RRIRIRPPRLPRPRPRPRYLPRP,0.0743
16,RRIRNRPPRLPRPRPRPDWYPRP,-0.0314
17,RRIRGRPPRLPRPRPRPKIVPRP,0.278
18,RRIRKRPPRLPRPRPRPNKNPRP,0.125
19,RRIRPRPPRLPRPRPRPCAIPRP,-1.01
20,RRIRYRPPRLPRPRPRPLWMPRP,-0.63
21,RRIRSRPPRLPRPRPRPADEPRP,0.246
22,RRIRMRPPRLPRPRPRPESVPRP,0.958

row,Sequence,shrunken log2 fold change
1,RRIRGRPPRLPRPRPRPITQPRP,-0.0614
2,RRIRQRPPRLPRPRPRPNQMPRP,-0.0557
3,RRIRARPPRLPRPRPRPIMDPRP,-0.0229
4,RRIRHRPPRLPRPRPRPETLPRP,-0.18
5,RRIRMRPPRLPRPRPRPFVWPRP,0.246
6,RRIRGRPPRLPRPRPRPITYPRP,0.265
7,RRIRFRPPRLPRPRPRPFVAPRP,-0.0081
8,RRIRPRPPRLPRPRPRPDIAPRP,-0.0378
9,RRIRTRPPRLPRPRPRPYPQPRP,-0.14
10,RRIRWRPPRLPRPRPRPCDRPRP,-0.0349
11,RRIRMRPPRLPRPRPRPKHHPRP,0.148
12,RRIRNRPPRLPRPRPRPHMVPRP,-0.13
13,RRIRLRPPRLPRPRPRPLRTPRP,1.18
14,RRIRERPPRLPRPRPRPMPRPRP,0.0247
15,RRIRRRPPRLPRPRPRPGRTPRP,0.315
16,RRIRCRPPRLPRPRPRPVLHPRP,-0.199
17,RRIRDRPPRLPRPRPRPCRSPRP,-0.0116
18,RRIRMRPPRLPRPRPRPASVPRP,1.67
19,RRIRKRPPRLPRPRPRPAFMPRP,0.341
20,RRIRQRPPRLPRPRPRPQLKPRP,-0.0311
21,RRIRQRPPRLPRPRPRPLPNPRP,0.0261
22,RRIRFRPPRLPRPRPRPHWEPRP,-0.0104

row,Sequence,shrunken log2 fold change
1,RRIRVRPPRLPRPRPRPSHDPRP,-0.159
2,RRIRNRPPRLPRPRPRPHETPRP,-0.127
3,RRIRMRPPRLPRPRPRPHMWPRP,0.108
4,RRIRGRPPRLPRPRPRPPNAPRP,1.35
5,RRIRRRPPRLPRPRPRPFWVPRP,0.236
6,RRIRHRPPRLPRPRPRPWNKPRP,-0.111
7,RRIRNRPPRLPRPRPRPILNPRP,-0.353
8,RRIRGRPPRLPRPRPRPDLRPRP,0.0067
9,RRIRWRPPRLPRPRPRPMMRPRP,1.08
10,RRIRKRPPRLPRPRPRPRADPRP,0.511
11,RRIRTRPPRLPRPRPRPGQNPRP,0.138
12,RRIRWRPPRLPRPRPRPDYTPRP,-0.0601
13,RRIRPRPPRLPRPRPRPQCSPRP,-0.0986
14,RRIRGRPPRLPRPRPRPATMPRP,0.44
15,RRIRKRPPRLPRPRPRPSMYPRP,-0.306
16,RRIRPRPPRLPRPRPRPTGLPRP,0.156
17,RRIRMRPPRLPRPRPRPHFHPRP,-0.376
18,RRIRTRPPRLPRPRPRPKKAPRP,-0.0102
19,RRIRYRPPRLPRPRPRPKLGPRP,-0.0974
20,RRIRRRPPRLPRPRPRPNWRPRP,0.415
21,RRIRRRPPRLPRPRPRPRPHPRP,1.6
22,RRIRYRPPRLPRPRPRPPEWPRP,0.0503

row,Sequence,shrunken log2 fold change
1,RRIRRRPPRLPRPRPRPAEFPRP,0.0257
2,RRIRIRPPRLPRPRPRPYTAPRP,-1.28
3,RRIRHRPPRLPRPRPRPSHFPRP,-0.0233
4,RRIRKRPPRLPRPRPRPRTVPRP,0.244
5,RRIRYRPPRLPRPRPRPWVGPRP,-0.352
6,RRIRFRPPRLPRPRPRPVTCPRP,-0.491
7,RRIRIRPPRLPRPRPRPQLGPRP,-0.0971
8,RRIRLRPPRLPRPRPRPANWPRP,0.0804
9,RRIRNRPPRLPRPRPRPDVDPRP,0.0446
10,RRIRIRPPRLPRPRPRPIQHPRP,-0.468
11,RRIRTRPPRLPRPRPRPGWNPRP,-0.039
12,RRIRVRPPRLPRPRPRPTEWPRP,0.322
13,RRIRTRPPRLPRPRPRPNHDPRP,-0.3
14,RRIRERPPRLPRPRPRPYAQPRP,-0.384
15,RRIRWRPPRLPRPRPRPMAFPRP,-0.0177
16,RRIRPRPPRLPRPRPRPEFEPRP,-0.0475
17,RRIRWRPPRLPRPRPRPMYKPRP,-0.0607
18,RRIRPRPPRLPRPRPRPTTDPRP,0.0167
19,RRIRVRPPRLPRPRPRPYREPRP,-0.3
20,RRIRSRPPRLPRPRPRPIRRPRP,0.011
21,RRIRWRPPRLPRPRPRPSVSPRP,0.104
